Earlier results on 4 substances are cited in US20250352622A1, “GLP-1 FORMULATIONS AND THEIR USES” (Rose Pharma Inc., priority 2024, published 2025).

Read-outs that look alike come from different tables or passages of the source.

lixisenatide: the half-life entry (in vivo) is reported as “about 3 hours”. As to tirzepatide, the t1/2 result (in vivo) is “about 5 days”. Turning to dulaglutide, the t1/2 entry (longer acting GLP-1 agonist) is on record as “about 90 hours”. Take semaglutide: the t1/2 result (in vivo) was “about 1 week”.
